For 47 variants, abundance fitness results are on record in the Human Domainome abundance scans (Beltran et al. 2025).

± gives the uncertainty stated by the source.

B1: 1-phosphatidylinositol 4,5-bisphosphate phosphodiesterase gamma-2, residues 772 to 827; numbered along this chain, P16885 (parent)
chain: RTVKALYDYKAKRSDELSFCRGALIHNVSKEPGGWWKGDYGTRIQQYFPSNYVEDI

Variants of B1 are the subject of the data set. Briefly: abundance fitness (aPCA) (normalised: wild type 0, dead -1); higher = more abundant; growth selection in yeast, the domain comes from the species named. As to conditions: Homo sapiens.
For the variant RTVKALYDYKAKRSDELSFCRGALIHNVSKEPGGWWKGDYGTRIQQYFPSNLVEDI [Y52L], the abundance fitness is 0.026 ± 0.049.

As for RTVKALYDYKAKRSDELSFCRGALIHNVSKEPGGWWKGDYGTRIQQYFPSNTVEDI [Y52T], the abundance fitness stood at 0.01 ± 0.094.

For the variant RTVKALYDYKAKRSDELSFCRGALIHNVSKEPGGWWKGDYGTRIQQYFPSNNVEDI [Y52N], the abundance fitness was -0.605 ± 0.21.

Turning to RTVKALYDYKAKRSDELSFCRGALIHNVSKEPGGWWKGDYGTRIQQYFPSNDVEDI [Y52D], the abundance fitness is -0.98 ± 0.35.

With RTVKALYDYKAKRSDELSFCRGALIHNVSKEPGGWWKGDYGTRIQQYFPSNIVEDI [Y52I], the abundance fitness is -0.077 ± 0.16.

In the case of RTVKALYDYKAKRSDELSFCRGALIHNVSKEPGGWWKGDYGTRIQQYFPSNPVEDI [Y52P], the abundance fitness is -0.892 ± 0.29.

Consider RTVKALYDYKAKRSDELSFCRGALIHNVSKEPGGWWKGDYGTRIQQYFPSNSVEDI [Y52S], for which the abundance fitness is -0.304 ± 0.066.

Consider RTVKALYDYKAKRSDELSFCRGALIHNVSKEPGGWWKGDYGTRIQQYFPSNQVEDI [Y52Q], for which the abundance fitness is -0.281 ± 0.1.

Consider RTVKALYDYKAKRSDELSFCRGALIHNVSKEPGGWWKGDYGTRIQQYFPSNKVEDI [Y52K], for which the abundance fitness is -0.138 ± 0.11.

Consider RTVKALYDYKAKRSDELSFCRGALIHNVSKEPGGWWKGDYGTRIQQYFPSNMVEDI [Y52M], for which the abundance fitness came out at 0.045 ± 0.071.

Consider RTVKALYDYKAKRSDELSFCRGALIHNVSKEPGGWWKGDYGTRIQQYFPSNAVEDI [Y52A], for which the abundance fitness is -0.092 ± 0.091.

With RTVKALYDYKAKRSDELSFCRGALIHNVSKEPGGWWKGDYGTRIQQYFPSNGVEDI [Y52G], the abundance fitness is -0.787 ± 0.11.

Consider RTVKALYDYKAKRSDELSFCRGALIHNVSKEPGGWWKGDYGTRIQQYFPSNWVEDI [Y52W], for which the abundance fitness was -0.327 ± 0.089.

As to RTVKALYDYKAKRSDELSFCRGALIHNVSKEPGGWWKGDYGTRIQQYFPSNRVEDI [Y52R], the abundance fitness is -0.295 ± 0.049.

Take RTVKALYDYKAKRSDELSFCRGALIHNVSKEPGGWWKGDYGTRIQQYFPSNFVEDI [Y52F]: the abundance fitness is 0.022 ± 0.081.

On to RTVKALYDYKAKRSDELSFCRGALIHNVSKEPGGWWKGDYGTRIQQYFPSNHVEDI [Y52H], for which the abundance fitness was -0.222 ± 0.097.

For the variant RTVKALYDYKAKRSDELSFCRGALIHNVSKEPGGWWKGDYGTRIQQYFPSNEVEDI [Y52E], the abundance fitness is -0.943 ± 0.47.

On to RTVKALYDYKAKRSDELSFCRGALIHNVSKEPGGWWKGDYGTRIQQYFPSNCVEDI [Y52C], for which the abundance fitness was -0.086 ± 0.064.

Consider RTVKALYDYKAKRSDELSFCRGALIHNVSKEPGGWWKGDYGTRIQQYPPSNYVEDI [F48P], for which the abundance fitness is -0.923 ± 0.093.

Regarding RTVKALYDYKAKRSDELSFCRGALIHNVSKEPGGWWKGDYGTRIQQYNPSNYVEDI [F48N], the abundance fitness was -0.437 ± 0.4.

With RTVKALYDYKAKRSDELSFCRGALIHNVSKEPGGWWKGDYGTRIQQYRPSNYVEDI [F48R], the abundance fitness is -0.982 ± 0.21.

As for RTVKALYDYKAKRSDELSFCRGALIHNVSKEPGGWWKGDYGTRIQQYAPSNYVEDI [F48A], the abundance fitness is -1.02 ± 0.16.

As for RTVKALYDYKAKRSDELSFCRGALIHNVSKEPGGWWKGDYGTRIQQYTPSNYVEDI [F48T], the abundance fitness is -0.952 ± 0.12.

Take RTVKALYDYKAKRSDELSFCRGALIHNVSKEPGGWWKGDYGTRIQQYSPSNYVEDI [F48S]: the abundance fitness was -0.872 ± 0.11.

Consider RTVKALYDYKAKRSDELSFCRGALIHNVSKEPGGWWKGDYGTRIQQYMPSNYVEDI [F48M], for which the abundance fitness is -0.911 ± 0.15.

With RTVKALYDYKAKRSDELSFCRGALIHNVSKEPGGWWKGDYGTRIQQYWPSNYVEDI [F48W], the abundance fitness is -0.848 ± 0.16.

With RTVKALYDYKAKRSDELSFCRGALIHNVSKEPGGWWKGDYGTRIQQYLPSNYVEDI [F48L], the abundance fitness is -0.541 ± 0.13.

For RTVKALYDYKAKRSDELSFCRGALIHNVSKEPGGWWKGDYGTRIQQYEPSNYVEDI [F48E], the abundance fitness is -1.05 ± 0.23.

As for RTVKALYDYKAKRSDELSFCRGALIHNVSKEPGGWWKGDYGTRIQQYVPSNYVEDI [F48V], the abundance fitness was -0.939 ± 0.19.

RTVKALYDYKAKRSDELSFCRGALIHNVSKEPGGWWKGDYGTRIQQYFPSNYVADI [E54A]: the abundance fitness is -0.119 ± 0.053.

RTVKALYDYKAKRSDELSFCRGALIHNVSKEPGGWWKGDYGTRIQQYFPSNYVCDI [E54C]: the abundance fitness was -0.197 ± 0.094.

For the variant RTVKALYDYKAKRSDELSFCRGALIHNVSKEPGGWWKGDYGTRIQQYFPSNYVGDI [E54G], the abundance fitness was -0.276 ± 0.055.

Consider RTVKALYDYKAKRSDELSFCRGALIHNVSKEPGGWWKGDYGTRIQQYFPSNYVFDI [E54F], for which the abundance fitness was -0.04 ± 0.12.

For RTVKALYDYKAKRSDELSFCRGALIHNVSKEPGGWWKGDYGTRIQQYFPSNYVDDI [E54D], the abundance fitness was -0.291 ± 0.21.

RTVKALYDYKAKRSDELSFCRGALIHNVSKEPGGWWKGDYGTRIQQYFPSLYVEDI [N51L]: the abundance fitness is -0.261 ± 0.057.

RTVKALYDYKAKRSDELSFCRGALIHNVSKEPGGWWKGDYGTRIQQYFPSKYVEDI [N51K]: the abundance fitness is -0.076 ± 0.069.

For the variant RTVKALYDYKAKRSDELSFCRGALIHNVSKEPGGWWKGDYGTRIQQYFPSIYVEDI [N51I], the abundance fitness was -0.373 ± 0.25.

Turning to RTVKALYDYKAKRSDELSFCRGALIHNVSKEPGGWWKGDYGTRIQQYFPSTYVEDI [N51T], the abundance fitness is -0.025 ± 0.045.

Regarding RTVKALYDYKAKRSDELSFCRGALIHNVSKEPGGWWKGDYGTRIQQYFPSRYVEDI [N51R], the abundance fitness was -0.057 ± 0.048.

Take RTVKALYDYKAKRSDELSFCRGALIHNVSKEPGGWWKGDYGTRIQQYFPSYYVEDI [N51Y]: the abundance fitness was -0.155 ± 0.12.

Consider RTVKALYDYKAKRSDELSFCRGALIHNVSKEPGGWWKGDYGTRIQQYFPSGYVEDI [N51G], for which the abundance fitness is -0.034 ± 0.044.

For the variant RTVKALYDYKAKRSDELSFCRGALIHNVSKEPGGWWKGDYGTRIQQYFPSSYVEDI [N51S], the abundance fitness is 0.067 ± 0.059.

For RTVKALYDYKAKRSDELSFCRGALIHNVSKEPGGWWKGDYGTRIQQYFPSAYVEDI [N51A], the abundance fitness is -0.025 ± 0.058.

Consider RTVKALYDYKAKRSDELSFCRGALIHNVSKEPGGWWKGDYGTRIQQYFPSPYVEDI [N51P], for which the abundance fitness is -0.425 ± 0.12.

With RTVKALYDYKAKRSDELSFCRGALIHNVSKEPGGWWKGDYGTRIQQYFPSCYVEDI [N51C], the abundance fitness amounted to 0.13 ± 0.089.

Take RTVKALYDYKAKRSDELSFCRGALIHNVSKEPGGWWKGDYGTRIQQYFPSQYVEDI [N51Q]: the abundance fitness was -0.129 ± 0.087.

Regarding RTVKALYDYKAKRSDELSFCRGALIHNVSKEPGGWWKGDYGTRIQQYFPSMYVEDI [N51M], the abundance fitness is -0.232 ± 0.092.
